# Results from PMC2467505.
# How the values were obtained:
# Assay in all cases: purified protein
# [1] = substrate: CCCC(C)O; settings: oxidation, 70°C, 50 mM glycine pH 10.5, 0.35 mM NADP+
# [2] = substrate: CC(=O)CCC(C)=O; settings: reduction, 70°C, 0.1 M sodium phosphate pH 7.0, 0.35 mM NADPH
# [3] = substrate: C[C@H](O)CC[C@H](C)O; settings: oxidation, 70°C, 50 mM glycine pH 10.5, 0.35 mM NADP+
# [4] = substrate: CC(=O)C=O; settings: reduction, 70°C, 0.1 M sodium phosphate pH 7.0, 0.35 mM NADPH
protein,measurement,setting,value
AdhA (Pyrococcus furiosus; INS1A) (protein) MAKVAVITGASRGIGEAIAKALAEDGYSLALGARSVDRLEKIAKELSEKHGVEVFYDYLDVSKPESVEEFARKTLAHFGDVDVVVANAGLGYFGRLEELTEEQFHEMIEVNLLGVWRTIKAFLNSLKRTGGVAIVVTSDVSARLLPYGGGYVATKWAARALVRTFQIENPDVRFFELRPGAVDTYFGGSKAGKPKEQGYLKPEEVAEAVKYLLRLPKDVRVEELMLRSIYQKPEY,Km,[1],30.3 ± 0.4 mM
same,Vmax,[1],13.1 µmol/min/mg
same,kcat/Km,[1],100 M⁻¹ s⁻¹
same,Km,[2],56.4 ± 0.6 mM
same,Vmax,[2],1.9 µmol/min/mg
same,kcat/Km,[2],10 M⁻¹ s⁻¹
same,Km,[3],5.4 ± 0.3 mM
same,Vmax,[3],12.8 µmol/min/mg
same,kcat/Km,[3],1000 M⁻¹ s⁻¹
same,Km,[4],1.2 ± 0.03 mM
same,Vmax,[4],10.4 µmol/min/mg
same,kcat/Km,[4],3800 M⁻¹ s⁻¹
